From patent US20050182242A1, “Global analysis of protein activities using proteome chips” (priority 2001, published 2005)

B1: Hxk1p: yeast hexokinase, GST fusion (protein, UniProt P04806 1-485, looked up)
Hexokinase-1: MVHLGPKKPQARKGSMADVPKELMDEIHQLEDMFTVDSETLRKVVKHFIDELNKGLTKKGGNIPMIPGWVMEFPTGKESGNYLAIDLGGTNLRVVLVKLSGNHTFDTTQSKYKLPHDMRTTKHQEELWSFIADSLKDFMVEQELLNTKDTLPLGFTFSYPASQNKINEGILQRWTKGFDIPNVEGHDVVPLLQNEISKRELPIEIVALINDTVGTLIASYYTDPETKMGVIFGTGVNGAFYDVVSDIEKLEGKLADDIPSNSPMAINCEYGSFDNEHLVLPRTKYDVAVDEQSPRPGQQAFEKMTSGYYLGELLRLVLLELNEKGLMLKDQDLSKLKQPYIMDTSYPARIEDDPFENLEDTDDIFQKDFGVKTTLPERKLIRRLCELIGTRAARLAVCGIAAICQKRGYKTGHIAADGSVYNKYPGFKEAAAKGLRDIYGWTGDASKDPITIVPAEDGSGAGAAVIAALSEKRIAEGKSLGIIGA
modifications: GST tag
notes: yeast hexokinase, GST fusion
B2: Pyc1p: pyruvate carboxylase 1 homolog with conserved biotin-attachment region (protein, UniProt P11154 1-1178, looked up)
Pyruvate carboxylase 1: MSQRKFAGLRDNFNLLGEKNKILVANRGEIPIRIFRTAHELSMQTVAIYSHEDRLSTHKQKADEAYVIGEVGQYTPVGAYLAIDEIISIAQKHQVDFIHPGYGFLSENSEFADKVVKAGITWIGPPAEVIDSVGDKVSARNLAAKANVPTVPGTPGPIETVEEALDFVNEYGYPVIIKAAFGGGGRGMRVVREGDDVADAFQRATSEARTAFGNGTCFVERFLDKPKHIEVQLLADNHGNVVHLFERDCSVQRRHQKVVEVAPAKTLPREVRDAILTDAVKLAKECGYRNAGTAEFLVDNQNRHYFIEINPRIQVEHTITEEITGIDIVAAQIQIAAGASLPQLGLFQDKITTRGFAIQCRITTEDPAKNFQPDTGRIEVYRSAGGNGVRLDGGNAYAGTIISPHYDSMLVKCSCSGSTYEIVRRKMIRALIEFRIRGVKTNIPFLLTLLTNPVFIEGTYWTTFIDDTPQLFQMVSSQNRAQKLLHYLADVAVNGSSIKGQIGLPKLKSNPSVPHLHDAQGNVINVTKSAPPSGWRQVLLEKGPAEFARQVRQFNGTLLMDTTWRDAHQSLLATRVRTHDLATIAPTTAHALAGRFALECWGGATFDVAMRFLHEDPWERLRKLRSLVPNIPFQMLLRGANGVAYSSLPDNAIDHFVKQAKDNGVDIFRVFDALNDLEQLKVGVDAVKKAGGVVEATVCFSGDMLQPGKKYNLDYYLEIAEKIVQMGTHILGIKDMAGTMKPAAAKLLIGSLRAKYPDLPIHVHTHDSAGTAVASMTACALAGADVVDVAINSMSGLTSQPSINALLASLEGNIDTGINVEHVRELDAYWAEMRLLYSCFEADLKGPDPEVYQHEIPGGQLTNLLFQAQQLGLGEQWAETKRAYREANYLLGDIVKVTPTSKVVGDLAQFMVSNKLTSDDVRRLANSLDFPDSVMDFFEGLIGQPYGGFPEPFRSDVLRNKRRKLTCRPGLELEPFDLEKIREDLQNRFGDVDECDVASYNMYPRVYEDFQKMRETYGDLSVLPTRSFLSPLETDEEIEVVIEQGKTLIIKLQAVGDLNKKTGEREVYFDLNGEMRKIRVADRSQKVETVTKSKADMHDPLHIGAPMAGVIVEVKVHKGSLIKKGQPVAVLSAMKMEMIISSPSDGQVKEVFVSDGENVDSSDLLVLLEDQVPVETKA
B3: Eno2p: yeast enolase, GST fusion (protein, UniProt P00925 2-437, looked up)
Enolase 2: AVSKVYARSVYDSRGNPTVEVELTTEKGVFRSIVPSGASTGVHEALEMRDEDKSKWMGKGVMNAVNNVNNVIAAAFVKANLDVKDQKAVDDFLLSLDGTANKSKLGANAILGVSMAAARAAAAEKNVPLYQHLADLSKSKTSPYVLPVPFLNVLNGGSHAGGALALQEFMIAPTGAKTFAEAMRIGSEVYHNLKSLTKKRYGASAGNVGDEGGVAPNIQTAEEALDLIVDAIKAAGHDGKVKIGLDCASSEFFKDGKYDLDFKNPESDKSKWLTGVELADMYHSLMKRYPIVSIEDPFAEDDWEAWSHFFKTAGIQIVADDLTVTNPARIATAIEKKAADALLLKVNQIGTLSESIKAAQDSFAANWGVMVSHRSGETEDTFIADLVVGLRTGQIKTGAPARSERLAKLNQLLRIEEELGDKAVYAGENFHHGDKL
modifications: GST tag
notes: yeast enolase, GST fusion

Legend:
[1] = system: phospholipids (phosphatidylinositols vs phosphatidylcholine); assay: Proteome chip lipid-binding screen, overall analysis of six liposomes (PI/PC specificity); conditions: phospholipid liposome probes
Text: FIGS. 4A-4D. Analysis of the phosphatidylinositol-binding proteins. To determine the phosphatidylinositol (“PI”)-binding specificity of 150 positive proteins, their binding signals were normalized against the corresponding binding signals of phosphatidylcholine (“PC”). Based on the ratios (“PI/PC”), the proteins were grouped into four categories: (A) 30 strong and specific, (B) 43 strong and nonspecific, (C) 19 weak and specific, and (D) 58 weak and nonspecific phosphatidylinositol-binding proteins. The intensity represents the PI/PC signal ratio as shown by the scale in the figure. The column, labeled “10^n” to the right of the PI/PC binding ratios indicates the maximum binding signal intensity (open boxes) and its confidence interval (solid horizontal lines); the numbers indicate the log of the values. Boxes in the three columns to the right of the confidence interval column indicate membrane-associated proteins (“Membrane”), kinases (“Kinase”), and uncharacterized ORFs (“Unknown”), respectively.
To identify PI-binding proteins in yeast, liposomes were used as probes because the liposome provides the most relevant physiological condition to assay the interactors. Six types of liposomes were used. Each contains phosphatidylcholine (“PC”) with 1% (w/w) N-(biotinoyl)-1,2-dihexadecanoyl-sn-glycero-3-phosphoethanolamine, triethylammonium salt (biotin DHPE). The biotinylated lipid serves as a label that can be detected by Cy3-streptavidin (21). In addition to PC, the five other liposomes contain either 5% (w/w) PI(3)P, PI(4)P, PI(3,4)P2, PI(4,5)P2, or PI(3,4,5)P3 (FIG. 3A).
The protein-liposome interaction was assayed as follows. Appropriate amounts of each lipid in chloroform were mixed and dried under nitrogen. The lipid mixture was resuspended in TBS buffer by vortexing. The liposomes were created by sonication. Blocked proteome chips were washed three to five times in PBS buffer, and the extra liquid on the glass surface was removed by tapping the slides vertically on a KIMWIPE™. 200 μl of liposome solution was added to the proteome chip and immediately covered by a hydrophobic plastic cover slip (GRACE BIO-LAB™, USA). After trapped air bubbles were removed, the chip was incubated in a humidity chamber at RT for one hour. To remove the cover slip, the chip was immersed into large volume of PBS buffer (50 ml), so that the slip would float away. The chip was then moved to a second PBS bath (>50 ml) and washed 3×5 min with shaking at RT. After removing extra liquid on the surface of the chip, about 100 μl of Cy3 or Cy5 conjugated streptavidin (PIERCE™, USA; 1:2000 to 1:4000 dilution) was added to the surface and covered by a hydrophobic plastic cover slip (GRACE BIO-LABS™, USA). The chip was incubated for greater than 30 min in the dark at RT. The chip was then washed as described above. To completely remove the liquid on the chip, the chip was spun to dryness at 1500-2000 rpm for 5-10 min at RT.
An algorithm was devised to assist in the identification of positive signals (42). Fifty-two (35%) of the interactors (i.e., lipid-binding proteins) correspond to uncharacterized proteins thus ascribing the first biochemical activities to those proteins.
The interactors (i.e., phospholipid-binding proteins) were grouped in several ways (42). First, the interactors were sorted according to whether they bound lipids strongly or weakly, based on the phospholipid-binding signal relative to the amount of GST (FIG. 4). Slightly more (72%) of the strong lipid binding proteins (FIGS. 4A and 4B) were characterized relative to the weakly binding proteins (54%) (FIGS. 4C and 4D). Many of the strong lipid-binding proteins are membrane-associated, or are predicted to be associated with membranes, whereas fewer of the weaker binding proteins appear to be associated with membranes (FIG. 4, “Membrane” column). […] Moreover, thirteen of the seventeen protein kinases bind very strongly to the phospholipids. […]

[2] = system: PI(4,5)P2 liposomes; assay: Nitrocellulose membrane assay: adhered PI(4,5)P2 liposomes probed with GST fusion proteins; type: binding; conditions: dilution series, anti-GST antibodies, ECL
Text: A. PI(4,5)P2 liposomes were first adhered to a nitrocellulose membrane, which was blocked by BSA; a dilution series of Rim15p, Eno2p, and Hxk1p, and a GST control were used to probe the membrane. The bound proteins were detected using the anti-GST antibodies and an enhanced chemiluminescence (“ECL”) kit.
Therefore, six proteins, i.e., Rim15p, Eno2p, Hxk1p, Sps1p, Yg1059wp, and Gcn2p, were further tested for phosphoinositol binding using two types of standard assays (Williamson, 2000, Nat. Struct Biol. 7(10):834-7). For Rim15p, Eno2p, and Hxk1p, PI(4,5)P2 liposomes were first adhered to a nitrocellulose membrane, which was then blocked by BSA; different amounts of the GST fusion proteins and a GST control were used to probe the membrane, and bound proteins were detected using anti-GST antibodies. […] We also carried out the reverse assay for four GST fusion proteins, Rim15p, Sps1p, Yg1059wp, and Gcn2p (Guerra et al., 2000, Biosci. Rep. 20: 41). Different amounts of these purified proteins were spotted onto nitrocellulose filters and probed with the six different liposomes (FIG. 5B). The bound liposomes were detected using a horseradish peroxidase (“HRP”)-conjugated streptavidin.

[3] = biological target: T1, Cy3-labeled streptavidin (Streptomyces avidinii, UniProt P22629); assay: Yeast proteome chip probed with Cy3-labeled streptavidin alone; type: binding
T1 construct: purchased Jackson IR, USA
T1 sequence (P22629 25-183): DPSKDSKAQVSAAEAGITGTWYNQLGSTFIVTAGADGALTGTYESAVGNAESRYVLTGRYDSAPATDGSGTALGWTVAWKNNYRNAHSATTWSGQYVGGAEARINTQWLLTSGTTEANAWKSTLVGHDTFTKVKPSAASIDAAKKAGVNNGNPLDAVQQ
Text: To test for protein-protein interactions, the yeast proteome was probed with calmodulin (11). Calmodulin is a highly conserved calcium-binding protein involved in many calcium-regulated cellular processes and has many known physical partners (Hook et al., 2001, Annu. Rev. Pharmacol. Toxicol. 41:471). The calmodulin probe was biotinylated, and bound probe was detected using Cy3-labeled streptavidin. As a control, the yeast proteome was probed with Cy3-labeled streptavidin alone.
In addition to the calmodulin-binding targets, one protein, Pyc1p, which bound Cy3 -labeled streptavidin, was also identified. Pyc1p encodes a pyruvate carboxylase 1 homolog that contains a highly conserved biotin-attachment region (Menendez et al., 1998, Yeast 14:647). Thus, as predicted by its sequence, Pyc1p is biotinylated in vivo; and was identified in all experiments using streptavidin detection methods. Thus, proteome microarrays can be used to identify posttranslational modifications of proteins.

| Molecule | identified as lipid-binding interactor [1] | binding to PI(4,5)P2 liposomes on membrane [2] | binding of Cy3-labeled streptavidin [3] |
| --- | --- | --- | --- |
| B1 | identified | tightly bound PI(4,5)P2 | – |
| B2 | – | – | bound |
| B3 | identified | tightly bound PI(4,5)P2 | – |
